Earlier results as cited in paper PMC6661118.
pKd: −log10 of the molar value. Like-named read-outs stand apart in the source and are kept apart here.

Key:
MDM2 (Homo sapiens) [1] = molecular target: MDM2 (Homo sapiens) (UniProt Q00987)
MDM2 (Homo sapiens) [2] = molecular target: MDM2 (Homo sapiens) (UniProt Q00987); remark: listed apart in the source

MDM2 (Homo sapiens), sequence (Q00987 whole entry): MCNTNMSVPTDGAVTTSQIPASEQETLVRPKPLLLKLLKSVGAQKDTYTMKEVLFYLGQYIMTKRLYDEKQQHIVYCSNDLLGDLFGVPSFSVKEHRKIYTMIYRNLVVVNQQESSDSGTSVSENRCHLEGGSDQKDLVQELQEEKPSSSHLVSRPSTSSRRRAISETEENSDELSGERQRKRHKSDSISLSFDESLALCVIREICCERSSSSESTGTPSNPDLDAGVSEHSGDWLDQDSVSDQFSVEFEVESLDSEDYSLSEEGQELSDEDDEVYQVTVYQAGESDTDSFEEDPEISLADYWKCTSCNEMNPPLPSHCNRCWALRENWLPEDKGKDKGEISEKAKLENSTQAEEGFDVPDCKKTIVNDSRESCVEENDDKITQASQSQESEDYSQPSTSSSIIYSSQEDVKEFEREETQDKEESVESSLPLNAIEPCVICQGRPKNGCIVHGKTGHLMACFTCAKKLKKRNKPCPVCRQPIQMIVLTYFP

Row | Substance | pKd (MDM2 (Homo sapiens) [1]) | pKd (MDM2 (Homo sapiens) [2])
1 | p53 (from UniProt P04637) | 6.39 | –
2 | p53-SAH-8 (from UniProt P04637) | – | 7.26
